Data taken from patent US5861155.
Values joined by “and” are separate entries in the source; they are usually repeats but may differ in a detail not shown here. Equal entries are not always repeated.

Key:
[1] = molecular target: human T cell receptor with β chain variable region Vβ 5.2, on HPB-ALL cells (human); experiment: flow cytometry on HPB cells, TM27 purified from CHO cells
[2] = molecular target: human T cell receptor with β chain variable region Vβ 5.2, on HPB-ALL cells (human); experiment: flow cytometry on HPB cells, TM27 purified from NSO cells
[3] = molecular target: human T cell receptor with β chain variable region Vβ 5.2, on HPB-ALL cells (human); experiment: 4H11-FITC competition assay, competitor label 4H11-FITC (cells not stated in the example)

mean channel fluorescence [1] | mean channel fluorescence [2] | value in the 4H11-FITC competition assay, fold against TM23 [3] | Binder
283 and 322 | 507 | < 3 fold | TM27 (antibody, V domains shown) VH: QVQLQESGPGLVRPSQTLSLTCTVSGFSLTAYGVNWVRQPPGRGLEWLGMIWGDGNTDYNSALKSRVTMLKDTSKNQFSLRLSSVTAADTAVYYCARDRVTATLYAMDYWGQGSLVTVSS VL: DIQMTQSPSSLSASVGDRVTITCSASQGISNYLNWYQQTPGKAPKLLIYYTSSLHSGVPSRFSGSGSGTDYTFTISSLQPEDIATYYCQQYSKLPRTFGQGTKLQIT
– | – | < 3 fold | TM27I (antibody, V domains shown) VH: QVQLQESGPGLVRPSQTLSLTCTVSGFSLTAYGVNWVRQPPGRGLEWIGMIWGDGNTDYNSALKSRVTMLKDTSKNQFSLRLSSVTAADTAVYYCARDRVTATLYAMDYWGQGSLVTVSS VL: DIQMTQSPSSLSASVGDRVTITCSASQGISNYLNWYQQTPGKAPKLLIYYTSSLHSGVPSRFSGSGSGTDYTFTISSLQPEDIATYYCQQYSKLPRTFGQGTKLQIT
